Laboratory results published in patent publication US20260144882A1 (BIO THERA SOLUTIONS, published 2026).
Residue numbers refer to the chain shown, from its start. Like-named read-outs stand apart in the source and are kept apart here. Blank lines part the entries; values can stand above or below the binder they belong to.

Experiments:
[1] = target: T1, human Nectin-4 extracellular antigen hNectin-4-His (human, UniProt Q96NY8 32-349); test: ELISA, coated hNectin-4-His
T1 construct: C-terminal 8xHis tag included
T1 sequence: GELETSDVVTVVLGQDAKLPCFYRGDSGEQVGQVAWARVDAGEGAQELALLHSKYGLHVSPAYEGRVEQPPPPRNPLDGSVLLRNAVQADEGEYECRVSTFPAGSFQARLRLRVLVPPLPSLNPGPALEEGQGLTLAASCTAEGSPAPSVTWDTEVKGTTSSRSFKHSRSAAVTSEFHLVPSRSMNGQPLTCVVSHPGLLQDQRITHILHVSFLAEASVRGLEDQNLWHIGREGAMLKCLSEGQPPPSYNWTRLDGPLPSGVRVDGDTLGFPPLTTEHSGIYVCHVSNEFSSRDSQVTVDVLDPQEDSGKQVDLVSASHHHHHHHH
From the text: (§1) The binding activity of the antibodies was detected by ELISA.

[2] = target: T1, human Nectin-4 extracellular antigen …; test: SPR, antibody on Protein A chip, 1:1 fit
From the text: In this study, the affinity of the antibodies for the human Nectin-4 extracellular antigen was detected by surface plasmon resonance (SPR) technique (BIAcore: GE Healthcare, T200).

[3] = target: T1, human Nectin-4 extracellular antigen …; test: ELISA, coated hNectin-4-His; remark: listed apart in the source
From the text: as §1

[4] = target: T2, human Nectin-4, full length on cells (human, UniProt Q96NY8 32-510); test: flow cytometry, T-47D cells, antibody bound on ice, 0 h at 37 C
T2 construct: whole, on cells; T-47D cells positive for Nectin-4 expression; also called Nectin-4 on T-47D cells; CHO-Nectin-4
T2 sequence (looked up): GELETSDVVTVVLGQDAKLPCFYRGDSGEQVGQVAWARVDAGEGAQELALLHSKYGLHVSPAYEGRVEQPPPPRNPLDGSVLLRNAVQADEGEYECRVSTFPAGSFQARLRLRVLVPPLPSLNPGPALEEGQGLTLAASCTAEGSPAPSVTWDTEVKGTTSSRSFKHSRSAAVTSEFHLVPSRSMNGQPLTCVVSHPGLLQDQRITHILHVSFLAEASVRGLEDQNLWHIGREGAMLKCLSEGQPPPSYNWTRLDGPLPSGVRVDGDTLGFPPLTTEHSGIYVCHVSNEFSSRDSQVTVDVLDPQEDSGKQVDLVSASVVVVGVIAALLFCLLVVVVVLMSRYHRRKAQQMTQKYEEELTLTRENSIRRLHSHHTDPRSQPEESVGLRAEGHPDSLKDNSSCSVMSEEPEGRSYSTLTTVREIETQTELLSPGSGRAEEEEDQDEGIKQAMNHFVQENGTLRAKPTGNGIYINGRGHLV
Method: In this assay, the relative amount of antibodies remaining on the cell surface after co-incubation at 37° C. for a certain period of time was detected by FACS to reflect the endocytosis efficiency. The procedures are briefly described as follows: T-47D cells (human ductal breast cancer cells, derived from the Cell Bank of Chinese Academy of Sciences, Cat.No. TCHu 87); the antibodies of interest were adjusted to 10 µg/mL and co-incubated with the cells on ice for 1 h; the cells were washed 3 times with pre-cooled PBS, and then placed at 37° C. and incubated for 0 h, 2 h and 4 h; 0.2% N₃Na was added to stop the endocytosis reaction; the cells were washed with PBS thrice, followed by the addition of the PE-labeled anti-human Fc secondary antibody (Invitrogen 12-4998-82); the cells were incubated at 4° C. for 30 min; the red fluorescence signal was detected on a flow cytometer.

B1: antibody 1G8-2F2 (antibody, human IgG1, kappa, V domains shown)
VH: EVQLVESGGGLVQPGGSLRLSCAASGDIFGSYAMSWVRQAPGKGLEWVSRISSHGASRDYADSVKGRFTISRDNSKNTLYLQMNSLRAEDTAVYYCARQTEDRSYGYDLDYWGQGTLVTVSS
VL: DIQMTQSPSSLSASVGDRVTITCRASQGISSYLAWYQQKPGKAPKLLIYAASSLQSGVPSRFSGSGSGTDFTLTISSLQPEDFATYYCQQHYTTPPTFGQGTKVEIKR
EC50 [1]: 0.012 µg/mL | Kd [2]: 2.12 nM | koff [2]: 0.00166 s⁻¹ | kon [2]: 784000 M⁻¹ s⁻¹

B4: antibody 10F4-1A1 (antibody, human IgG1, kappa, V domains shown)
VH: EVQLVESGGGLVQPGGSLRLSCAASGFSFDNYDMSWVRQAPGKGLEWVSSIKPGSAYKFYADSVKGRFTISRDNSKNTLYLQMNSLRAEDTAVYYCAREYSDVVDYVSVRTPLDYWGQGTLVTVSS
VL: B1 VL
EC50 [3]: 0.051 µg/mL | Kd [2]: 0.432 nM | koff [2]: 0.000186 s⁻¹ | kon [2]: 430000 M⁻¹ s⁻¹

B6: antibody 10F4-1C3 (antibody, human IgG1, kappa, V domains shown)
VH: B4 VH with F27Y, D30S, N31D, D33W, P53Q, G54T, S55G, A56G, Y57V, F59H
VL: B1 VL
EC50 [3]: 0.053 µg/mL | Kd [2]: 0.589 nM | koff [2]: 0.000218 s⁻¹ | kon [2]: 370000 M⁻¹ s⁻¹

B8: antibody 10F4-1G7 (antibody, human IgG1, kappa, V domains shown)
VH: B4 VH with F27Y, S28N, D30G, N31D, K52I, P53G, G54H, S55G, A56D, Y57T
VL: B1 VL
EC50 [3]: 0.068 µg/mL | Kd [2]: 0.374 nM | koff [2]: 0.000145 s⁻¹ | kon [2]: 389000 M⁻¹ s⁻¹

B9: antibody 10F4-2C6 (antibody, human IgG1, kappa, V domains shown)
VH: EVQLVESGGGLVQPGGSLRLSCAASGFNFGGFDMSWVRQAPGKGLEWVSGIKQYKGYTSYADSVKGRFTISRDNSKNTLYLQMNSLRAEDTAVYYCAREYSDVVDYVSVRTPLDYWGQGTLVTVSS
VL: B1 VL
EC50 [3]: 0.09 µg/mL | Kd [2]: 0.285 nM | koff [2]: 8.36e-05 s⁻¹ | kon [2]: 294000 M⁻¹ s⁻¹

B10: antibody 1G8-2G8 (antibody, human IgG1, kappa, V domains shown)
VH: B1 VH with D27F, I28N, G30T, S31N, S53T, H54Y, A56D, S57T, R58T, D59H
VL: B1 VL
EC50 [1]: 0.006 µg/mL | Kd [2]: 1.87 nM | koff [2]: 0.00142 s⁻¹ | kon [2]: 758000 M⁻¹ s⁻¹

B13: antibody 10F4-2F11 (antibody, human IgG1, kappa, V domains shown)
VH: B9 VH with F27Y, G30T, G31S, F32Y, Q53T, Y54G, K55G, Y57S, T58A, S59R
VL: B1 VL
EC50 [3]: 0.078 µg/mL | Kd [2]: 0.396 nM | koff [2]: 0.000161 s⁻¹ | kon [2]: 406000 M⁻¹ s⁻¹

B15: antibody 10F4-1 (antibody, human IgG1, kappa, V domains shown)
VH: B4 VH with F27D, D30T, D33W, S50G, K52S, P53Q, S55G, A56S, K58A, F59Y
VL: B1 VL
MFI (mean fluorescence intensity) 0 h [4]: 58600 MFI | Kd [2]: 0.545 nM | koff [2]: 0.000226 s⁻¹ | kon [2]: 415000 M⁻¹ s⁻¹

B16: antibody 10F4-1F1 (antibody, human IgG1, kappa, V domains shown)
VH: B4 VH with D30S, D33W, S50A, K52S, S55D, A56G, Y57T, K58I
VL: B1 VL
EC50 [3]: 0.057 µg/mL

B17: antibody 10F4-1C10 (antibody, human IgG1, kappa, V domains shown)
VH: B9 VH with F27Y, G31S, F32Y, Q53T, K55G, Y57N, S59H
VL: B1 VL
EC50 [3]: 0.058 µg/mL | Kd [2]: 0.435 nM | koff [2]: 0.000116 s⁻¹ | kon [2]: 265000 M⁻¹ s⁻¹

B19: antibody 10F4-1F8 (antibody, human IgG1, kappa, V domains shown)
VH: EVQLVESGGGLVQPGGSLRLSCAASGYTFTDYDMSWVRQAPGKGLEWVSSIITDGGGAFYADSVKGRFTISRDNSKNTLYLQMNSLRAEDTAVYYCAREYSDVVDYVSVRTPLDYWGQGTLVTVSS
VL: B1 VL
EC50 [3]: 0.054 µg/mL | Kd [2]: 0.558 nM | koff [2]: 0.000237 s⁻¹ | kon [2]: 424000 M⁻¹ s⁻¹

B21: antibody 1F3-1A9 (antibody, human IgG1, kappa, V domains shown)
VH: EVQLVESGGGLVQPGGSLRLSCAASGYSFDNYAMSWVRQAPGKGLEWVSRISPTGGYASYADSVKGRFTISRDNSKNTLYLQMNSLRAEDTAVYYCARAELLAFDVYTASDYWGQGTLVTVSS
VL: B1 VL
EC50 [1]: 0.007 µg/mL | Kd [2]: 0.641 nM | koff [2]: 0.000994 s⁻¹ | kon [2]: 1.55e+06 M⁻¹ s⁻¹

Second part, the binder after the results:

EC50 [3]: 0.06 µg/mL | Kd [2]: 0.533 nM | koff [2]: 0.000304 s⁻¹ | kon [2]: 570000 M⁻¹ s⁻¹
B2: antibody 10F4-2C12 (antibody, human IgG1, kappa, V domains shown)
VH: EVQLVESGGGLVQPGGSLRLSCAASGYNFGDYSMSWVRQAPGKGLEWVSVIDTTSAYTRYADSVKGRFTISRDNSKNTLYLQMNSLRAEDTAVYYCAREYSDVVDYVSVRTPLDYWGQGTLVTVSS
VL: B1 VL

EC50 [1]: 0.005 µg/mL | Kd [2]: 1.98 nM | koff [2]: 0.00147 s⁻¹ | kon [2]: 742000 M⁻¹ s⁻¹
B3: antibody 1G8-2B3 (antibody, human IgG1, kappa, V domains shown)
VH: EVQLVESGGGLVQPGGSLRLSCAASGYNFTTSAMSWVRQAPGKGLEWVSRIYQDSSTTDYADSVKGRFTISRDNSKNTLYLQMNSLRAEDTAVYYCARQTEDRSYGYDLDYWGQGTLVTVSS
VL: B1 VL

EC50 [1]: 0.008 µg/mL | Kd [2]: 0.62 nM | koff [2]: 0.00105 s⁻¹ | kon [2]: 1.69e+06 M⁻¹ s⁻¹
B5: antibody 1F3-1H3 (antibody, human IgG1, kappa, V domains shown)
VH: EVQLVESGGGLVQPGGSLRLSCAASGFNFYNYGMSWVRQAPGKGLEWVSGIKPHSDVAHYADSVKGRFTISRDNSKNTLYLQMNSLRAEDTAVYYCARAELLAFDVYTASDYWGQGTLVTVSS
VL: B1 VL

EC50 [1]: 0.008 µg/mL | Kd [2]: 0.743 nM | koff [2]: 0.000596 s⁻¹ | kon [2]: 802000 M⁻¹ s⁻¹
B7: antibody 1F3-1G7 (antibody, human IgG1, kappa, V domains shown)
VH: B5 VH with F27D, N28I, Y30S, G33S, K52Y, H54S, S55G, V57S, A58R, H59R
VL: B1 VL

EC50 [3]: 0.059 µg/mL | Kd [2]: 0.605 nM | koff [2]: 0.000212 s⁻¹ | kon [2]: 350000 M⁻¹ s⁻¹
B11: antibody 10F4-1H11 (antibody, human IgG1, kappa, V domains shown)
VH: B19 VH with D31G, Y32F, D33W, I52S, T53P, G55S, G57T, A58K, F59H
VL: B1 VL

EC50 [3]: 0.067 µg/mL
B12: antibody 10F4-1E1 (antibody, human IgG1, kappa, V domains shown)
VH: B4 VH with F27D, S28I, D30G, D33W, K52D, P53A, G54S, A56G, Y57N, K58R
VL: B1 VL

EC50 [1]: 0.009 µg/mL | Kd [2]: 0.552 nM | koff [2]: 0.00101 s⁻¹ | kon [2]: 1.82e+06 M⁻¹ s⁻¹
B14: antibody 1F3-2B9 (antibody, human IgG1, kappa, V domains shown)
VH: B5 VH with Y30D, N31S, G33A, S55T, V57D, A58I, H59Y
VL: B1 VL

EC50 [3]: 0.063 µg/mL | Kd [2]: 0.505 nM | koff [2]: 0.000151 s⁻¹ | kon [2]: 299000 M⁻¹ s⁻¹
B18: antibody 10F4-1H6 (antibody, human IgG1, kappa, V domains shown)
VH: B9 VH with G30Y, G31D, F32Y, Q53T, Y54H, K55S, Y57G, T58N, S59G
VL: B1 VL

EC50 [1]: 0.008 µg/mL | Kd [2]: 0.564 nM | koff [2]: 0.000966 s⁻¹ | kon [2]: 1.71e+06 M⁻¹ s⁻¹
B20: antibody 1F3-1F8 (antibody, human IgG1, kappa, V domains shown)
VH: B5 VH with Y30G, G50R, K52S, P53G, H54D, S55G, D56S, V57N, A58I, H59N
VL: B1 VL
